B1: Hairpin Ribozyme (parent)
chain: GUCCUCUUUCACGUGCGCGUGAAAGAGAGAAGUGAACCAGAGAAACACACGUUGUGGUAUAUUACCUGGUA

Variants of: B1
Test: self-cleavage, relative activity (ratio to wild type); higher = more cleavage; co-transcriptional

| Variant | self-cleavage |
| --- | --- |
| U7A A35G | 0.796 |
| A28U G56U | 0.0609 |
| C16U U70C | 0.949 |
| G17U A35U | 0.557 |
| U5G A28C | 0.0791 |
| C10U A26C | 0.687 |
| A43C A44G | 0.0582 |
| A26U A31C | 0.171 |
| U2G U63A | 0.149 |
| G1A A61U | 0.0641 |
| U14C G32U | 0.138 |
| A22U G56A | 0.147 |
| C10G A23C | 0.416 |
| U63C U70G | 0.248 |
| U8A A44C | 0.213 |
| A24G G25C | 0.668 |
| U20C G42C | 0.313 |
| A23G G27U | 0.254 |
| C66A U67C | 0.159 |
| A43U U55G | 0.232 |
| C4G C65G | 0.178 |

| Variant | self-cleavage |
| --- | --- |
| G57C | 0.166 |
| C18U G42U | 0.407 |
| G54C U70C | 0.146 |
| A30G U70A | 0.0747 |
| C10A C66A | 0.283 |
| C4G A22G | 0.326 |
| U5A A26C | 0.491 |
| G51U G68U | 0.318 |
| C38U A61U | 0.164 |
| U33A G51A | 0.177 |
| G42A G69A | 0.112 |
| C3A G51A | 0.819 |
| U20G U67A | 0.241 |
| C6A G51U | 0.58 |
| U7G G69U | 0.166 |
| C12A G25A | 0.486 |
| G13A A43U | 0.144 |
| U2A A49G | 0.188 |
| G1C A24U | 0.19 |
| A24C A26G | 0.835 |
| G21A G69A | 0.382 |

| Variant | self-cleavage |
| --- | --- |
| G57C U63A | 0.165 |
| A23G A59G | 0.184 |
| A45G G68A | 0.122 |
| C46A A59C | 0.3 |
| U7A U58G | 0.775 |
| G17U G54C | 0.413 |
| C6U C50G | 0.299 |
| A36C U67A | 0.174 |
| U8C C37A | 0.214 |
| A49U G54C | 0.28 |
| A11G G25A | 0.43 |
| G21C G54A | 0.392 |
| G1C U62C | 0.0543 |
| C6G C46A | 0.153 |
| G27A U55G | 0.144 |
| G40C U62G | 0.0847 |
| G13C U52G | 0.76 |
| G27U G29U | 0.119 |
| A11C C16A | 0.759 |
| C4U C10A | 0.177 |
| G25A U60A | 0.626 |

| Variant | self-cleavage |
| --- | --- |
| U14C U62A | 0.142 |
| U2G C37A | 0.131 |
| C37G U62C | 0.152 |
| G27U G42C | 0.0625 |
| A23U A59U | 0.189 |
| G19U U55G | 0.313 |
| U33C G68C | 0.0535 |
| G1A A36C | 0.215 |
| G1C U5A | 0.133 |
| A28C C48G | 0.128 |
| C4A G13C | 0.223 |
| A26G A44U | 0.103 |
| G15U G34U | 1.46 |
| U14G U52G | 0.507 |
| A45G G54C | 0.0826 |
| A31G G32C | 0.0299 |
| A24U C48G | 0.245 |
| G17A A24C | 0.894 |
| G15C A35G | 1.08 |
| G27U U63G | 0.243 |

Reference: the RNAGym collection of RNA variant scans (doi:10.7554/elife.80360)
